# Assay: SGF digest of 168 nutritive polypeptide library, intact protein by LC-MS/MS
# Format: in vitro ADME
# Conditions: 168 nutritive polypeptide library SGF digest, LC-MS/MS spectral counts
# Procedure: The in vitro intact half-life of multiple polypeptides in a complex mixture was determined using the simulated gastric in vitro digestion described above. Briefly, the 168 nutritive polypeptide library was generated as described herein by cloning, transforming, and expressing a gene library encoding 168 proteins as a single mixture. The recombinantly expressed proteins were purified from host cell proteins by IMAC purification as described herein.
# The 168 Protein Library was treated with SGF as described above and the t=0 and t=10 min samples were analyzed for intact protein by LC-MS/MS. To begin, 10 μg of sample was loaded onto a 10% SDS-PAGE gel (Invitrogen) and run approximately 5 cm into the gel. The gel was excised into ten fractions from 100 kD to the dye front and the gel slices were processed by washing with 25 mM ammonium bicarbonate, followed by acetonitrile. Gel fractions were then reduced with 10 mM dithiothreitol at 60° C., followed by alkylation with 50 mM iodoacetamide at room temperature. Finally, the samples were digested with trypsin (Promega) at 37° C. for 4 h and the digestions were quenched with the addition of formic acid. The samples were then analyzed by nano LC/MS/MS using an EasynLC 1000 HPLC system interfaced to a ThermoFisher Q Exactive. Peptides were loaded on a trapping column and eluted over a 75 μm analytical column at 350 nL/min; both columns were packed with PepMap C18 3 μm resin (ThemoFisher). A 1 hour gradient was employed. The mass spectrometer was operated in data-dependent mode, with MS and MS/MS performed in the Orbitrap at 70,000 FWHM resolution and 17,500 FWHM resolution, respectively. The fifteen most abundant ions were selected for MS/MS. Data were searched against an appropriate database using Mascot to identify peptides. Mascot DAT files were parsed into the Scaffold software for validation, filtering and to create a nonredundant list per sample. Data were filtered at 1% protein and peptide false discovery rate (FDR) and requiring at least two unique peptides per protein. A full list of detected proteins and their spectral counts (SpC) was generated and reported as a function of each collected gel fraction. SpC are a count of the number of spectra identified for a given protein and are used as a measure of relative protein abundance (Liu, H. et al., Analytical Chemistry 2004, 76: 4193-4201). To calculate the percentage of intact protein remaining at the 10 min time point of the SGF digest the number of SpC representative of intact peptide in the t=10 min sample were divided by the number of SpC representative of intact peptide in the t=0 min sample. The number of SpC representative of intact peptide was defined as the sum of the SpC in the fraction with the highest number of SpC assigned to that protein in the t=0 min sample and the two flanking fractions.
row,Molecule,% Intact Protein at 10 min [%]
1,"SEQID-00540: protein of the 168 nutritive polypeptide library (protein, Arthrospira platensis C1, protein of the 168 nutritive polypeptide library) MARIAGVDLPRDKRVEIGLTYIYGIGLSRSKEILAETGVNPDTRVKDLTDADVAALRSVIQTNYQVEGDLRRLEAMSIKRLMDIGTYRGRRHRMGLPVRGQRTRTNARTRRGVRRTVAGKKKAASKK",0
2,"SEQID-00562: protein of the 168 nutritive polypeptide library (protein, listed as Lactobacillus acidophilus, source: /note=""strain 30SC"", protein of the 168 nutritive polypeptide library) MKKFASFVLGAVAGCAAGFLAGSLLVSDEQVDDVKNKIKDNDKLQDLKKKYDNGTEIVKNQLASFPKNVEDDSELKDFDDIVIDDSNKDDDVTAGDNAQESVDDLNNAEEEHNAEDAEEDKPEA",0
3,"SEQID-00574: protein of the 168 nutritive polypeptide library (protein, listed as Lactobacillus acidophilus, source: /note=""strain 30SC"", protein of the 168 nutritive polypeptide library) MPTINQLVRKGRHSKVTKSKSPALNYSYNSMKKESVFNPAPQMRGVATRVGTMTPKKPNSALRKYARVRLSNLIEVTAYIPGEGHNLQEHSVVLIRGGRVKDLPGVRYHIVRGALDTAGVDGRKQSRSKYGAKKD",0
4,"SEQID-00573: protein of the 168 nutritive polypeptide library (protein, listed as Cicer arietinum) MAPAKAEKKPAEKKPAAEKAPAEKKPKAEKKISKEGTSDKKKKRVKKSVETYKIYIFKVLKQVHPDIGISSKAMGIMNSFINDIFEKLAQEASRLARYNKKPTITSREIQTAVRLVLPGELAKHAVSEGTKAVTKFTSS",66.7
5,"SEQID-00564: protein of the 168 nutritive polypeptide library (protein, Zea mays, protein of the 168 nutritive polypeptide library) MAPKAEKKPAAKKPAEEEPAAPAEKAPAGKKPDLIKRLPAGKSAGKEGGVDKKGRKKAKKSVETYKIYIFKVLKQVHPDIGISSKAMSIMNSFINDIFEKLAGEAAKLARYNKKPTITSREIQTSVRLVLPGELAKHAVSEGTKAVTKFTSS",89.6
6,"SEQID-00570: protein of the 168 nutritive polypeptide library (protein, listed as Saccharomyces cerevisiae, source: /note=""strain ATCC 204508 / S288c"", protein of the 168 nutritive polypeptide library) MFLRNSVLRTAPVLRRGITTLTPVSTKLAPPAAASYSQAMKANNFVYVSGQIPYTPDNKPVQGSISEKAEQVFQNVKNILAESNSSLDNIVKVNVFLADMKNFAEFNSVYAKHFHTHKPARSCVGVASLPLNVDLEMEVIAVEKN",91.4
7,"SEQID-00552: protein of the 168 nutritive polypeptide library (protein, listed as Saccharomyces cerevisiae, source: /note=""strain ATCC 204508 / S288c"", protein of the 168 nutritive polypeptide library) MSNMMNKFAEKLQGNDDSHQKGKNAKSSNKERDDMNMDMGMGHDQSEGGMKMGHDQSGTKMNAGRGIANDWKTYENMKK",79
8,"SEQID-00536: protein of the 168 nutritive polypeptide library (protein, listed as Solanum lycopersicum) MEEEKHHHHHLFHHKDKAEEGPVDYEKEIKHHKHLEQIGKLGTVAAGAYALHEKHEAKKDPEHAHKHKIEEEIAAAAAVGAGGFAFHEHHEKKDAKKEEKKAEGGHHHLF",11.8
9,"SEQID-00599: protein of the 168 nutritive polypeptide library (protein, listed as Agaricus bisporus, source: /note=""var. bisporus""; source: /note=""strain H97 / ATCC MYA-4626 / FGSC 10389"", protein of the 168 nutritive polypeptide library) MSESLRYLGSLEGHKGWVTAIATSSENPDMILTASRDKTIIVWQLTREDDSYGYPKRILHGHNHFVSDVVISSDGQFALSSSWDHTLRLWDLNTGVTTRRFVGHSSDVLSVSFSADNRQIVSGSRDRTIKLWNTLGECKFDIKEDGHSEWVSCVRFSPNVANPVIVSAGWDKVVKVWELSKFKLKTNHYGHTGYINTVSVSPDGSLAASGGKDGITMLWDLNEGKHLYSLEAGDVVNALVFSPNRYWLCAATASCVKIFDLESKSIVDELKPTYTDVGEDARQPECVSIAWSADGQTLFTGYTDNAVRVWIVTS",0
10,"SEQID-00581: protein of the 168 nutritive polypeptide library (protein, Arthrospira platensis NIES-39, protein of the 168 nutritive polypeptide library) MPKRQRKLAPPRGYKMHVKKGDTVQVIAGRDKGKVGEVISTLPKLSKVVVRDVNVRTKHVKPQQEGEGGRIVNFEAPIHSSNVMLYSTKEKVASRVSYTFTEDGRKVRMLKKTGEVID",33.3
11,"SEQID-00544: protein of the 168 nutritive polypeptide library (protein, listed as Gadus morhua) MGTRLHQTNTMKFAALALALLLAVGSHAAAMQSDAPSQLAHIRSAVGMYLDQVKDSAARSLDHLDGTEYESYKAQLATSLDSLQASIKTAQAGAEPYTDAAVAQVMEATTEVRASIMADIETLRTGPGPKREALKKVVDGHI",0
12,"SEQID-00590: protein of the 168 nutritive polypeptide library (protein, listed as Lactobacillus acidophilus, source: /note=""strain 30SC"", protein of the 168 nutritive polypeptide library) MANKAELVSEVASKTKLTKKEVAAAVDAIFGSIQDNLAKGEKVQLIGFGTFEVRHRAARKGRNPQTGDEIEIPASEVPAFKPGKALKEAVK",0
13,"SEQID-00545: protein of the 168 nutritive polypeptide library (protein, listed as Saccharomyces cerevisiae, source: /note=""strain ATCC 204508 / S288c"", protein of the 168 nutritive polypeptide library) MLSRAIFRNPVINRTLLRARPGAYHATRLTKNTFIQSRKYSDAHDEETFEEFTARYEKEFDEAYDLFEVQRVLNNCFSYDLVPAPAVIEKALRAARRVNDLPTAIRVFEALKYKVENEDQYKAYLDELKDVRQELGVPLKEELFPSSS",0
14,"SEQID-00541: protein of the 168 nutritive polypeptide library (protein, listed as Agaricus bisporus, source: /note=""var. bisporus""; source: /note=""strain H97 / ATCC MYA-4626 / FGSC 10389"", protein of the 168 nutritive polypeptide library) MVRISVLNDCLKSICNASRRGKRQVIVRPSSKVVVKFLSVMQRHGYIGEFEIIDDHRGGKIIVQLNGRLNKTGVISPRFNVQHNRIEQWINYLLPSRGIGIIVLTTSSGILDHEEARRKNVGGKLLGYVY",0
15,"SEQID-00555: protein of the 168 nutritive polypeptide library (protein, Arthrospira platensis NIES-39, protein of the 168 nutritive polypeptide library) MQAQEIIRAIEQEEIESVKTNVQKESIPKIYVGDTVKVGVRITEGGKERIQPYQGTVIAMRNGGINETITVRRIFQGVGVERVFLLHSPRIASIKVIMRGKVRRAKLYYLRDRVGKATRVPQRFDRPL",6.8
16,"SEQID-00592: protein of the 168 nutritive polypeptide library (protein, Zea mays, protein of the 168 nutritive polypeptide library) MAQTVVLKVGMSCEGCVGAVKRVLGKMEGVESYDVDIMEQKVTVKGNVTPDAVLQTVSKTGKKTSFWEAEAVTSESATPAGATA",24.3
17,"SEQID-00591: protein of the 168 nutritive polypeptide library (protein, listed as Saccharomyces cerevisiae, source: /note=""strain ATCC 204508 / S288c"", protein of the 168 nutritive polypeptide library) MLNRCISRNTRLPVNLRIASRFYSDGPLGGAGPGNPQDIFIKRERAKEDYYARQQEREQLAHVKEQLKEHKKKLENLENKINNLSK",20

# Reference: patent publication US20160228506A1, “Compositions and Formulations for Prevention and Reduction of Tumorigenesis, Cancer Cell Proliferation and Invasion, and Methods of Production and Use Thereof in Cancer Treatment” (PRONUTRIA, INC., priority 2013, published 2016)
